Measured values published in patent US20210292761, “COMPOSITIONS COMPRISING CIRCULAR POLYRIBONUCLEOTIDES AND USES THEREOF” (FLAGSHIP PIONEERING INNOVATIONS VI, LLC, published 2021).

Assays:
[1] = test system: NF-kB (endogenous, A549 cells) (Homo sapiens); assay: cell_activity; settings: A549, day 2 (89% day 1); 1 pmol transfected; indirect evidence of binding
[2] = biological target: T1, NF-kB p50 subunit (NFKB1) (UniProt P19838 P19838:1-433); assay: EMSA; scrambled control, same buffer; settings: tags: Cayman Chemical 10009818; chain copies: 2; hairpin; printed with T, is RNA
T1 sequence (P19838 1-433, one chain of several): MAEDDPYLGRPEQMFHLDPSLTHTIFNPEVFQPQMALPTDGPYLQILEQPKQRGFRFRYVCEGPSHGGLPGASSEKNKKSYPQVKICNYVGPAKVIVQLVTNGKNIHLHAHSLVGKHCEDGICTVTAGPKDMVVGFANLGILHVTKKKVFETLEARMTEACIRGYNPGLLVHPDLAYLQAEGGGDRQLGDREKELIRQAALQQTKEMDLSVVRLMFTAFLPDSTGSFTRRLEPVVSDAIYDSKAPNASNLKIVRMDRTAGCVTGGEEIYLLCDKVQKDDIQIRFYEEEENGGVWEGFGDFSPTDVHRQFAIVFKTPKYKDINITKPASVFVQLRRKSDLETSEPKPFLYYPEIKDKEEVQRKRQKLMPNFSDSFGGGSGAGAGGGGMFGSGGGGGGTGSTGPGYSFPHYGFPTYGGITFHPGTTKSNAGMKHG
Experimental: (§1) Electrophoretic mobility shift assay (EMSA) was performed to assess circular RNA binding affinity to NF-kB. One pmole of linear or circular RNA was incubated with recombinant NF-kB p50 subunit (Caymen Chemical, 10009818) at varying concentrations over the RNA concentration (i.e., 0, 0.1, 1, 10 pmoles of protein) for 20 minutes at room temperature in a buffered reaction (20 mM Tris-HCl, pH 8.0, 50 mM NaCl, 1 mM MgCl2). Samples were run a 6% TBE Urea gel for 25 minutes at 200V. Gels were stained with SybrGold (Thermo Scientific, S11494) and imaged with a blue E-gel imaging system (Thermo Scientific, 4466612).

[3] = biological target: T1, NF-kB p50 subunit (NFKB1); assay: EMSA; 1 pmol RNA, 0-10 pmol p50; 20 mM Tris-HCl pH 8.0, 50 mM NaCl, 1 mM MgCl2, RT 20 min; affinity similar to linear; settings: tags: Cayman Chemical 10009818; chain copies: 2; circular (ligated with RNA ligase 1), aptamer hairpin with poly(A) flanks; printed with T, is RNA
Experimental: as §1

[4] = biological target: T1, NF-kB p50 subunit (NFKB1); assay: EMSA; 1 pmol RNA, 0-10 pmol p50; 20 mM Tris-HCl pH 8.0, 50 mM NaCl, 1 mM MgCl2, RT 20 min; affinity similar to circular; settings: tags: Cayman Chemical 10009818; chain copies: 2; linear; printed with T, is RNA
Experimental: as §1

## AAAAAAAAAAGAUCUUGAAACUGUUUUAAGGUUGGCCGAUCUUAAAAAA [circular NF-kB aptamer RNA]
[1]
  activity: 86 % viability

B1: scrambled control RNA (ssRNA)
RNA: AAAAAAAUUCUCCGAACGUGUCACGUUUCAAGAGAACGUGACACGUUCGGAGAAAAAAAA
[2]
  binding result: no binding

## AAAAAAAAAAGAUCUUGAAACUGUUUUAAGGUUGGCCGAUCUUAAAAAA (ssRNA) [circular NF-kB aptamer RNA]
[3]
  binding result: binds

## AAAAAAAAAAGAUCUUGAAACUGUUUUAAGGUUGGCCGAUCUUAAAAAA (ssRNA, 5' monophosphate) [linear NF-kB aptamer RNA]
[4]
  binding result: binds
